Like-named read-outs stand apart in the source and are kept apart here.
Legend:
human CLDN6 [1] = target: T1, human CLDN6 (human, UniProt P56747 1-220); test: FACS on HEK293T-CLDN6 cells
T1 construct: whole, on cells; four-transmembrane protein; also called claudin-6; HEK293T-CLDN6
T1 sequence (looked up): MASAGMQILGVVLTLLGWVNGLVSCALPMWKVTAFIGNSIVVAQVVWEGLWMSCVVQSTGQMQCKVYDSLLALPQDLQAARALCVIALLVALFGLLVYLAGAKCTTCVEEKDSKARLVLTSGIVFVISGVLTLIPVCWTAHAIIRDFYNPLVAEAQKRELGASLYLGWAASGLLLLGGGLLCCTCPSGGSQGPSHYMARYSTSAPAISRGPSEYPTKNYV
Method: (§1) To detect a binding capacity of a chimeric or humanized antibody to CLDN6, a CLDN6-expressing cell line HEK293T-CLDN6 and a CLDN6-negative control cell line HEK293T were washed three times with PBS. 1×10⁵ test cells and 50 μL of an antibody solution to be tested were added to a 96-well plate, and incubated at 4° C. for 1 h. The cells were then washed three times with PBS. […] Finally, cells were washed three times with PBS, and signals were read using FACS.
(§2) An EC50 value (a concentration of an antibody that binds to half of binding sites at equilibrium) is calculated through nonlinear regression.

human CLDN6 [2] = target: T1, human CLDN6; test: FACS on HEK293T-CLDN6 cells; remark: listed apart in the source
Method: as §1, §2

human CLDN6 [3] = target: T1, human CLDN6; test: FACS on HEK293T-CLDN6 cells; remark: listed apart in the source
Method: as §1, §2

human CLDN6 [4] = target: T1, human CLDN6; test: FACS on HEK293T-CLDN6 cells; remark: listed apart in the source
Method: as §1, §2

human CLDN6 [5] = target: T1, human CLDN6; test: FACS on HEK293T-CLDN6 cells; remark: listed apart in the source
Method: as §1, §2

mouse CLDN6 = target: T2, mouse CLDN6 (mouse, UniProt Q9Z262 1-219); test: FACS on CHO-K1-Mouse CLDN6 cells
T2 construct: whole, on cells; also called CHO-K1-Mouse CLDN6
T2 sequence (looked up): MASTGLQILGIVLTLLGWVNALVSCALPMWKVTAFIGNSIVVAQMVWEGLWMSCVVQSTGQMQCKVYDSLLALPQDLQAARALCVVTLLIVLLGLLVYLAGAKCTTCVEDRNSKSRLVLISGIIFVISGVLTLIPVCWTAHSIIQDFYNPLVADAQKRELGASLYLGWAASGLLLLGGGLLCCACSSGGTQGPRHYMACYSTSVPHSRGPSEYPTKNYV

human CLDN6 [6] = target: T1, human CLDN6; test: FACS on 293T-CLDN6 cells, 10 µg/mL
human CLDN9 [7] = target: T3, human CLDN9 (human, UniProt O95484 1-217); test: FACS on 293T-CLDN9 cells, 10 µg/mL
T3 construct: whole, on cells; also called HEK293T-CLDN9
T3 sequence (looked up): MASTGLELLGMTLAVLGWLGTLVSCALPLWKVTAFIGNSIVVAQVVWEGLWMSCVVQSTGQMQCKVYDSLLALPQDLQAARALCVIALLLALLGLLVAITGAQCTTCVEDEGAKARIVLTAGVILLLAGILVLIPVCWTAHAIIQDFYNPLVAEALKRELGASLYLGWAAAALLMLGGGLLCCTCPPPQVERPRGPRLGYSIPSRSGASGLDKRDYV
Method: (§3) 50 μL of an antibody to be tested was added to a 96-well plate, then 1× 10⁵ cells were added to each well, and incubation was conducted at 4° C. for 1 h. Cells were washed three times with PBS. […] Finally, cells were washed three times with PBS, and signals were read using FACS. Binding capacities of the antibody to CLDN9, CLDN3, and CLDN4 were analyzed separately based on detection data.

human CLDN6 [8] = target: T1, human CLDN6; test: FACS on 293T-CLDN6 cells, 10 µg/mL; remark: listed apart in the source
human CLDN9 [9] = target: T3, human CLDN9; test: FACS on 293T-CLDN9 cells, 10 µg/mL; remark: listed apart in the source
Method: as §3

human CLDN6 [10] = target: T1, human CLDN6; test: FACS on CLDN6 cells (same value as Table 3, HEK293T-CLDN6)
human CLDN6 [11] = target: T1, human CLDN6; test: FACS on PA-1 tumour cells; target on the cells taken as CLDN6
Method: (§4) The specific binding of a chimeric antibody to a tumor cell was detected by FACS, and an EC50 value was calculated accordingly to evaluate an inhibitory effect of the chimeric antibody on the tumor cell.
as §3, with “1×10⁵” for “1× 10⁵”, “A binding capacity” for “Binding capacities”, “each tumor cell was” for “CLDN9, CLDN3, and CLDN4 were”, “analyzed” for “analyzed separately”

human CLDN6 [12] = target: T1, human CLDN6; test: as above; remark: listed apart in the source
Method: as §3, with “1×10⁵” for “1× 10⁵”, “A binding capacity” for “Binding capacities”, “each tumor cell was” for “CLDN9, CLDN3, and CLDN4 were”, “analyzed” for “analyzed separately”

human CLDN6 [13] = target: T1, human CLDN6; test: as above; remark: listed apart in the source
Method: as §3, with “1×10⁵” for “1× 10⁵”, “A binding capacity” for “Binding capacities”, “each tumor cell was” for “CLDN9, CLDN3, and CLDN4 were”, “analyzed” for “analyzed separately”

human CLDN6 [14] = target: T1, human CLDN6; test: FACS on HepG2 tumour cells; target on the cells taken as CLDN6
Method: as §4
as §3, with “1×10⁵” for “1× 10⁵”, “A binding capacity” for “Binding capacities”, “each tumor cell was” for “CLDN9, CLDN3, and CLDN4 were”, “analyzed” for “analyzed separately”

human CLDN6 [15] = target: T1, human CLDN6; test: as above; remark: listed apart in the source
Method: as §3, with “1×10⁵” for “1× 10⁵”, “A binding capacity” for “Binding capacities”, “each tumor cell was” for “CLDN9, CLDN3, and CLDN4 were”, “analyzed” for “analyzed separately”

human CLDN6 [16] = target: T1, human CLDN6; test: as above; remark: listed apart in the source
Method: as §3, with “1×10⁵” for “1× 10⁵”, “A binding capacity” for “Binding capacities”, “each tumor cell was” for “CLDN9, CLDN3, and CLDN4 were”, “analyzed” for “analyzed separately”

human CLDN6 [17] = target: T1, human CLDN6; test: ratio of FACS Geom.Mean on 293T-CLDN6 over 293T-CLDN9, 10 µg/mL
Method: as §3

human CLDN6 [18] = target: T1, human CLDN6; test: FACS on HepG2 tumour cells, 5 µg/mL; target on the cells taken as CLDN6
Method: as §3, with “1×10⁵” for “1× 10⁵”, “A binding capacity” for “Binding capacities”, “each tumor cell was” for “CLDN9, CLDN3, and CLDN4 were”, “analyzed” for “analyzed separately”

B1: IMAB027 (antibody, human IgG1, kappa, V domains shown)
VH: EVQLQQSGPELVKPGASMKISCKASGYSFTGYTMNWVKQSHGKNLEWIGLINPYNGGTIYNQKFKGKATLTVDKSSSTAYMELLSLTSEDSAVYYCARDYGFVLDYWGQGTTLTVSS
VL: IVLTQSPAIMSASPGEKVTITCSASSSVSYLHWFQQKPGTSPKLWVYSTSNLPSGVPARFGGSGSGTSYSLTISRMEAEDAATYYCQQRSIYPPWTFGGGTKLEIKR
notes: variable regions of mAb206-LCC on human IgG1 constant regions; also called benchmark antibody; control antibody
For B1, the EC50 (human CLDN6 [1]) was 0.0727 µg/mL, the EC50 (human CLDN6 [2]) was 0.213 µg/mL and the EC50 (human CLDN6 [3]) was 0.282 µg/mL. For the same binder, the EC50 (human CLDN6 [4]) was 0.0469 µg/mL, the EC50 (human CLDN6 [5]) was 0.0461 µg/mL and the EC50 (mouse CLDN6) was 0.181 µg/mL. The Geom.Mean (human CLDN6 [6]) was 23600, the Geom.Mean (human CLDN9 [7]) was 3810 and the Geom.Mean (human CLDN6 [8]) was 23600. The Geom.Mean (human CLDN9 [9]) was 1810, the EC50 (human CLDN6 [10]) was 0.213 µg/mL and the EC50 (human CLDN6 [11]) was 0.0741 µg/mL. It also gave an EC50 (human CLDN6 [12]) of 0.141 µg/mL, an EC50 (human CLDN6 [13]) of 0.141 µg/mL and an EC50 (human CLDN6 [14]) of 0.192 µg/mL. For the same binder, the EC50 (human CLDN6 [15]) was 0.242 µg/mL, the EC50 (human CLDN6 [16]) was 0.959 µg/mL and the CLDN6/CLDN9 ratio (human CLDN6 [17]) was 45. For the same binder, the Geom.Mean (human CLDN6 [18]) was 970.
